# Results published in paper PMC9352680, “A comprehensive thermodynamic model for RNA binding by the Saccharomyces cerevisiae Pumilio protein PUF4”.
# Target: T1, PUF4 RNA-binding domain (Saccharomyces cerevisiae, UniProt P25339 537-888)
# T1 sequence: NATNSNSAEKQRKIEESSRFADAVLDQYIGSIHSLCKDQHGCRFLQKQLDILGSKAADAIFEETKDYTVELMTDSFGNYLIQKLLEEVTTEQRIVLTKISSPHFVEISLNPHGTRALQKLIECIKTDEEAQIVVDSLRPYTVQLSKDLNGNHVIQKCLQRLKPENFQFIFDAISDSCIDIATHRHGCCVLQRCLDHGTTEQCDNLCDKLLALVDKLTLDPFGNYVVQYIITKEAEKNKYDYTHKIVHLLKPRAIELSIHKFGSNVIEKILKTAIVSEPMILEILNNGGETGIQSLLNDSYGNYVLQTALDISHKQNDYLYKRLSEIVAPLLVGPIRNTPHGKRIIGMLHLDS
# Test: Mg; RNA-MaP; 20 mM Na-HEPES pH 7.4, 30 mM KOAc, 0.75 mM MgCl2, 0.1% Tween-20, 5% glycerol, 0.1 mg/mL BSA, 2 mM DTT; 25 C; 0.0125-409.6 nM protein
# Conditions: tags: N-His6-TEV cleaved; C-SNAP kept, Cy3B-labelled; label: tethered on chip by stalled RNA polymerase
row,Binder,Kd [µM]
1,UCUCUUUGUACACAUUCUCUU (ssRNA) [Ic_S1_P4E.1_K4.1_C4.1_H4.1_A4.1_[T5C]_[T7C]_F4.1_[T8A]_[A9T]_T4.1],0.0226
2,UCUCUUUGUACUUGCUCUCUU (ssRNA) [Ic_S1_P4E.1_K4.1_C4.1_H4.1_A4.1_[T5C]_[A6T]_F4.1_[T8G]_[A9C]_T4.1],0.414
3,UCUCUUUGUACAGUGUCUCUU (ssRNA) [Ic_S1_P4E.1_K4.1_C4.1_H4.1_A4.1_[T5C]_[T7G]_F4.1_[A9G]_T4.1],0.0165
4,UCUCUUUGUACUAAAUCUCUU (ssRNA) [Ic_S1_P4E.1_K4.1_C4.1_H4.1_A4.1_[T5C]_[A6T]_[T7A]_F4.1_[T8A]_T4.1],0.0697
5,UCUCUUUGUACAGUUUCUCUU (ssRNA) [Ic_S1_P4E.1_K4.1_C4.1_H4.1_A4.1_[T5C]_[T7G]_F4.1_[A9T]_T4.1],0.0134
6,UCUCUUUGUACACUCUCUCUU (ssRNA) [Ic_S1_P4E.1_K4.1_C4.1_H4.1_A4.1_[T5C]_[T7C]_F4.1_[A9C]_T4.1],0.00895
7,UCUCUUUGUACUUCUUCUCUU (ssRNA) [Ic_S1_P4E.1_K4.1_C4.1_H4.1_A4.1_[T5C]_[A6T]_F4.1_[T8C]_[A9T]_T4.1],0.0752
8,UCUCUUUGUACUAGCUCUCUU (ssRNA) [Ic_S1_P4E.1_K4.1_C4.1_H4.1_A4.1_[T5C]_[A6T]_[T7A]_F4.1_[T8G]_[A9C]_T4.1],0.643
9,UCUCUUUGUACAAAUUCUCUU (ssRNA) [Ic_S1_P4E.1_K4.1_C4.1_H4.1_A4.1_[T5C]_[T7A]_F4.1_[T8A]_[A9T]_T4.1],0.125
10,UCUCUUUGUACAAAAUCUCUU (ssRNA) [Ic_S1_P4E.1_K4.1_C4.1_H4.1_A4.1_[T5C]_[T7A]_F4.1_[T8A]_T4.1],0.0341
11,UCUCUUUGUACUAUUUCUCUU (ssRNA) [Ic_S1_P4E.1_K4.1_C4.1_H4.1_A4.1_[T5C]_[A6T]_[T7A]_F4.1_[A9T]_T4.1],0.00922
12,UCUCUUGGUAUAUUUCUCUU (ssRNA) [Ib_S1_P3E.1_K3.1_C3.1_H3.1_[T1G]_A3.1_F3.1_[A8T]_T3.1],1.25
13,UCUCUUUGUACUUGAUCUCUU (ssRNA) [Ic_S1_P4E.1_K4.1_C4.1_H4.1_A4.1_[T5C]_[A6T]_F4.1_[T8G]_T4.1],0.465
14,UCUCUUUCUAUAUUUCUCUU (ssRNA) [Ib_S1_P3E.1_K3.1_C3.1_H3.1_[G2C]_A3.1_F3.1_[A8T]_T3.1],> 2.3
15,UCUCUUUGUACUCAUUCUCUU (ssRNA) [Ic_S1_P4E.1_K4.1_C4.1_H4.1_A4.1_[T5C]_[A6T]_[T7C]_F4.1_[T8A]_[A9T]_T4.1],0.15
16,UCUCUUUGUACAAGCUCUCUU (ssRNA) [Ic_S1_P4E.1_K4.1_C4.1_H4.1_A4.1_[T5C]_[T7A]_F4.1_[T8G]_[A9C]_T4.1],0.692
17,UCUCUUUGUACUACAUCUCUU (ssRNA) [Ic_S1_P4E.1_K4.1_C4.1_H4.1_A4.1_[T5C]_[A6T]_[T7A]_F4.1_[T8C]_T4.1],0.14
18,UCUCUUUGUACAACAUCUCUU (ssRNA) [Ic_S1_P4E.1_K4.1_C4.1_H4.1_A4.1_[T5C]_[T7A]_F4.1_[T8C]_T4.1],0.0144
19,UCUCUUUGUACACCCUCUCUU (ssRNA) [Ic_S1_P4E.1_K4.1_C4.1_H4.1_A4.1_[T5C]_[T7C]_F4.1_[T8C]_[A9C]_T4.1],0.118
20,UCUCUUUGUACUCUAUCUCUU (ssRNA) [Ic_S1_P4E.1_K4.1_C4.1_H4.1_A4.1_[T5C]_[A6T]_[T7C]_F4.1_T4.1],0.00348
21,UCUCUUUGUACUAUCUCUCUU (ssRNA) [Ic_S1_P4E.1_K4.1_C4.1_H4.1_A4.1_[T5C]_[A6T]_[T7A]_F4.1_[A9C]_T4.1],0.0138
22,UCUCUUUGUACACAAUCUCUU (ssRNA) [Ic_S1_P4E.1_K4.1_C4.1_H4.1_A4.1_[T5C]_[T7C]_F4.1_[T8A]_T4.1],0.0171

row,Binder,Kd [µM]
1,UCUCUUUGUACUCUUUCUCUU (ssRNA) [Ic_S1_P4E.1_K4.1_C4.1_H4.1_A4.1_[T5C]_[A6T]_[T7C]_F4.1_[A9T]_T4.1],0.0337
2,UCUCUUAGUAUAUUUCUCUU (ssRNA) [Ib_S1_P3E.1_K3.1_C3.1_H3.1_[T1A]_A3.1_F3.1_[A8T]_T3.1],1.22
3,UCUCUUUGUACUCCUUCUCUU (ssRNA) [Ic_S1_P4E.1_K4.1_C4.1_H4.1_A4.1_[T5C]_[A6T]_[T7C]_F4.1_[T8C]_[A9T]_T4.1],0.407
4,UCUCUUUGUACAUCCUCUCUU (ssRNA) [Ic_S1_P4E.1_K4.1_C4.1_H4.1_A4.1_[T5C]_F4.1_[T8C]_[A9C]_T4.1],0.0295
5,UCUCUUUGUACACGAUCUCUU (ssRNA) [Ic_S1_P4E.1_K4.1_C4.1_H4.1_A4.1_[T5C]_[T7C]_F4.1_[T8G]_T4.1],0.0609
6,UCUCUUUGUACUUUUUCUCUU (ssRNA) [Ic_S1_P4E.1_K4.1_C4.1_H4.1_A4.1_[T5C]_[A6T]_F4.1_[A9T]_T4.1],0.0192
7,UCUCUUUGUACACUUUCUCUU (ssRNA) [Ic_S1_P4E.1_K4.1_C4.1_H4.1_A4.1_[T5C]_[T7C]_F4.1_[A9T]_T4.1],0.00732
8,UCUCUUUGUACUACCUCUCUU (ssRNA) [Ic_S1_P4E.1_K4.1_C4.1_H4.1_A4.1_[T5C]_[A6T]_[T7A]_F4.1_[T8C]_[A9C]_T4.1],0.478
9,UCUCUUUGUACAAUUUCUCUU (ssRNA) [Ic_S1_P4E.1_K4.1_C4.1_H4.1_A4.1_[T5C]_[T7A]_F4.1_[A9T]_T4.1],0.0112
10,UCUCUUUGUACAGCUUCUCUU (ssRNA) [Ic_S1_P4E.1_K4.1_C4.1_H4.1_A4.1_[T5C]_[T7G]_F4.1_[T8C]_[A9T]_T4.1],0.0783
11,UCUCUUCGUAUAUUUCUCUU (ssRNA) [Ib_S1_P3E.1_K3.1_C3.1_H3.1_[T1C]_A3.1_F3.1_[A8T]_T3.1],0.83
12,UCUCUUUAUAUAUGUCUCUU (ssRNA) [Ib_S1_P3E.1_K3.1_C3.1_H3.1_[G2A]_A3.1_F3.1_[A8G]_T3.1],> 2.3
13,UCUCUUUGUACAAUCUCUCUU (ssRNA) [Ic_S1_P4E.1_K4.1_C4.1_H4.1_A4.1_[T5C]_[T7A]_F4.1_[A9C]_T4.1],0.0167
14,UCUCUUUGUACACUGUCUCUU (ssRNA) [Ic_S1_P4E.1_K4.1_C4.1_H4.1_A4.1_[T5C]_[T7C]_F4.1_[A9G]_T4.1],0.00505
15,UCUCUUUGUACAGUCUCUCUU (ssRNA) [Ic_S1_P4E.1_K4.1_C4.1_H4.1_A4.1_[T5C]_[T7G]_F4.1_[A9C]_T4.1],0.017
16,UCUCUUUGUACUAACUCUCUU (ssRNA) [Ic_S1_P4E.1_K4.1_C4.1_H4.1_A4.1_[T5C]_[A6T]_[T7A]_F4.1_[T8A]_[A9C]_T4.1],0.33
17,UCUCUUUGUACAAUGUCUCUU (ssRNA) [Ic_S1_P4E.1_K4.1_C4.1_H4.1_A4.1_[T5C]_[T7A]_F4.1_[A9G]_T4.1],0.00797
18,UCUCUUUGUACUUUCUCUCUU (ssRNA) [Ic_S1_P4E.1_K4.1_C4.1_H4.1_A4.1_[T5C]_[A6T]_F4.1_[A9C]_T4.1],0.0396
19,UCUCUUUGUAUGUAUCUCUU (ssRNA) [Ic_S1_P3E.1_K3.1_C3.1_H3.1_A3.1_[A6G]_F3.1_T3.1],0.0665
20,UCUCUUUGUACAACUUCUCUU (ssRNA) [Ic_S1_P4E.1_K4.1_C4.1_H4.1_A4.1_[T5C]_[T7A]_F4.1_[T8C]_[A9T]_T4.1],0.0339
21,UCUCUUUGUACUCCGUCUCUU (ssRNA) [Ic_S1_P4E.1_K4.1_C4.1_H4.1_A4.1_[T5C]_[A6T]_[T7C]_F4.1_[T8C]_[A9G]_T4.1],0.969
22,UCUCUUUGUACAACCUCUCUU (ssRNA) [Ic_S1_P4E.1_K4.1_C4.1_H4.1_A4.1_[T5C]_[T7A]_F4.1_[T8C]_[A9C]_T4.1],0.081

row,Binder,Kd [µM]
1,UCUCUUUGUACUCUGUCUCUU (ssRNA) [Ic_S1_P4E.1_K4.1_C4.1_H4.1_A4.1_[T5C]_[A6T]_[T7C]_F4.1_[A9G]_T4.1],0.0305
2,UCUCUUUGUACUCCCUCUCUU (ssRNA) [Ic_S1_P4E.1_K4.1_C4.1_H4.1_A4.1_[T5C]_[A6T]_[T7C]_F4.1_[T8C]_[A9C]_T4.1],0.508
3,UCUCUUUGUACAUGUUCUCUU (ssRNA) [Ic_S1_P4E.1_K4.1_C4.1_H4.1_A4.1_[T5C]_F4.1_[T8G]_[A9T]_T4.1],0.0209
4,UCUCUUUGUACUUAGUCUCUU (ssRNA) [Ic_S1_P4E.1_K4.1_C4.1_H4.1_A4.1_[T5C]_[A6T]_F4.1_[T8A]_[A9G]_T4.1],0.043
5,UCUCUUUGUACAGCGUCUCUU (ssRNA) [Ic_S1_P4E.1_K4.1_C4.1_H4.1_A4.1_[T5C]_[T7G]_F4.1_[T8C]_[A9G]_T4.1],0.112
6,UCUCUUUGUACUCAGUCUCUU (ssRNA) [Ic_S1_P4E.1_K4.1_C4.1_H4.1_A4.1_[T5C]_[A6T]_[T7C]_F4.1_[T8A]_[A9G]_T4.1],0.738
7,UCUCUUUGUACAACGUCUCUU (ssRNA) [Ic_S1_P4E.1_K4.1_C4.1_H4.1_A4.1_[T5C]_[T7A]_F4.1_[T8C]_[A9G]_T4.1],0.0923
8,UCUCUUUGUACACGGUCUCUU (ssRNA) [Ic_S1_P4E.1_K4.1_C4.1_H4.1_A4.1_[T5C]_[T7C]_F4.1_[T8G]_[A9G]_T4.1],0.468
9,UCUCUUUGUACUCACUCUCUU (ssRNA) [Ic_S1_P4E.1_K4.1_C4.1_H4.1_A4.1_[T5C]_[A6T]_[T7C]_F4.1_[T8A]_[A9C]_T4.1],1.06
10,UCUCUUUGUACUUGUUCUCUU (ssRNA) [Ic_S1_P4E.1_K4.1_C4.1_H4.1_A4.1_[T5C]_[A6T]_F4.1_[T8G]_[A9T]_T4.1],0.0519
11,UCUCUUUGUACACCGUCUCUU (ssRNA) [Ic_S1_P4E.1_K4.1_C4.1_H4.1_A4.1_[T5C]_[T7C]_F4.1_[T8C]_[A9G]_T4.1],0.407
12,UCUCUUUGUACUUCGUCUCUU (ssRNA) [Ic_S1_P4E.1_K4.1_C4.1_H4.1_A4.1_[T5C]_[A6T]_F4.1_[T8C]_[A9G]_T4.1],0.424
13,UCUCUUUGUACUUAUUCUCUU (ssRNA) [Ic_S1_P4E.1_K4.1_C4.1_H4.1_A4.1_[T5C]_[A6T]_F4.1_[T8A]_[A9T]_T4.1],0.0341
14,UCUCUUUGUACUUGGUCUCUU (ssRNA) [Ic_S1_P4E.1_K4.1_C4.1_H4.1_A4.1_[T5C]_[A6T]_F4.1_[T8G]_[A9G]_T4.1],0.623
15,UCUCUUUGUACAUGGUCUCUU (ssRNA) [Ic_S1_P4E.1_K4.1_C4.1_H4.1_A4.1_[T5C]_F4.1_[T8G]_[A9G]_T4.1],0.0596
16,UCUCUUUGUACAUGCUCUCUU (ssRNA) [Ic_S1_P4E.1_K4.1_C4.1_H4.1_A4.1_[T5C]_F4.1_[T8G]_[A9C]_T4.1],0.0286
17,UCUCUUUUUAUAUCUCUCUU (ssRNA) [Ib_S1_P3E.1_K3.1_C3.1_H3.1_[G2T]_A3.1_F3.1_[A8C]_T3.1],> 2.3
18,UCUCUUUGUACAAACUCUCUU (ssRNA) [Ic_S1_P4E.1_K4.1_C4.1_H4.1_A4.1_[T5C]_[T7A]_F4.1_[T8A]_[A9C]_T4.1],0.142
19,UCUCUUUGUACAGCAUCUCUU (ssRNA) [Ic_S1_P4E.1_K4.1_C4.1_H4.1_A4.1_[T5C]_[T7G]_F4.1_[T8C]_T4.1],0.0385
20,UCUCUUUGUACACGCUCUCUU (ssRNA) [Ic_S1_P4E.1_K4.1_C4.1_H4.1_A4.1_[T5C]_[T7C]_F4.1_[T8G]_[A9C]_T4.1],0.145
21,UCUCUUUGUACUAUAUCUCUU (ssRNA) [Ic_S1_P4E.1_K4.1_C4.1_H4.1_A4.1_[T5C]_[A6T]_[T7A]_F4.1_T4.1],0.00128
